Numbering of substitutions follows the chain as printed.
T1: PYR1^CA4 (H60P, V83F, F159V, M158I), 6xHis fusion
T1 chain: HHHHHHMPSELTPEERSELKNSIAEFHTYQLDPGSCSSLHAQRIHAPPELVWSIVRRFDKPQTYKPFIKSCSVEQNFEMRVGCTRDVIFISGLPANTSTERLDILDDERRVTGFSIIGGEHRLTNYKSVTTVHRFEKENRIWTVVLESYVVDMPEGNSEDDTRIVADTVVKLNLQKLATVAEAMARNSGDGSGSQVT

T2: PYR1^CA3 (H60P, V83F, F159V), 6xHis fusion
T2 chain: T1 chain with I164M

B1: 6xHis-SUMO-ABI1 (protein)
chain: HHHHHHSDSEVNQEAKPEVKPEVKPETHINLKVSDGSSEIFFKIKKTTPLRRLMEAFAKRQGKEMDSLRFLYDGIRIQADQTPEDLDMEDNDIIEAHREQIGGMEEVSPAIAGPFRPFSETQMDFTGIRLGKGYCNNQYSNQDSENGDLMVSLPETSSCSVSGSHGSESRKVLISRINSPNLNMKESAAADIVVVDISAGDEINGSDITSEKKMISRTESRSLFEFKSVPLYGFTSICGRRPEMEDAVSTIPRFLQSSSGSMLDGRFDPQSAAHFFGVYDGHGGSQVANYCRERMHLALAEEIAKEKPMLCDGDTWLEKWKKALFNSFLRVDSEIESVAPETVGSTSVVAVVFPSHIFVANCGDSRAVLCRGKTALPLSVDHKPDREDEAARIEAAGGKVIQWNGARVFGVLAMSRSIGDRYLKPSIIPDPEVTAVKRVKEDDCLILASDGVWDVMTDEEACEMARKRILLWHKKNAVAGDASLLADERRKEGKDPAAMSAAEYLSKLAIQRGSKDNISVVVVDLKPRRKLKSKPLN
B2: 6xHis-SUMO-ABI2 (protein)
chain: HHHHHHSDSEVNQEAKPEVKPEVKPETHINLKVSDGSSEIFFKIKKTTPLRRLMEAFAKRQGKEMDSLRFLYDGIRIQADQTPEDLDMEDNDIIEAHREQIGGMDEVSPAVAVPFRPFTDPHAGLRGYCNGESRVTLPESSCSGDGAMKDSSFEINTRQDSLTSSSSAMAGVDISAGDEINGSDEFDPRSMNQSEKKVLSRTESRSLFEFKCVPLYGVTSICGRRPEMEDSVSTIPRFLQVSSSSLLDGRVTNGFNPHLSAHFFGVYDGHGGSQVANYCRERMHLALTEEIVKEKPEFCDGDTWQEKWKKALFNSFMRVDSEIETVAHAPETVGSTSVVAVVFPTHIFVANCGDSRAVLCRGKTPLALSVDHKPDRDDEAARIEAAGGKVIRWNGARVFGVLAMSRSIGDRYLKPSVIPDPEVTSVRRVKEDDCLILASDGLWDVMTNEEVCDLARKRILLWHKKNAMAGEALLPAEKRGEGKDPAAMSAAEYLSKMALQKGSKDNISVVVVDLKGIRKFKSKSLN

Key:
[1] = biological target: T1, PYR1^CA4 (H60P, V83F, F159V, M158I), …
[2] = biological target: T2, PYR1^CA3 (H60P, V83F, F159V), 6xHis …

Protein	PP2C activity, % of control, pNPP hydrolysis, in the absence of ABA [1]	PP2C activity, % of control, pNPP hydrolysis, in the absence of ABA [2]
B1	both the triple and quadruple mutants dramatically increased basal PYR1 activity relative to wild-type PYR1	both the triple and quadruple mutants dramatically increased basal PYR1 activity relative to wild-type PYR1
B2	both the triple and quadruple mutants dramatically increased basal PYR1 activity relative to wild-type PYR1	both the triple and quadruple mutants dramatically increased basal PYR1 activity relative to wild-type PYR1
